Measured values published in the supplement of paper PMC7877785.
± gives the uncertainty stated by the source.

Experiment: self-splicing fitness, log relative to wild type (ln ratio); higher = more splicing; Tetrahymena group I intron in knt gene, E. coli kanamycin selection, DiMSum; sequences stand for … in CUCUCU…GGAGGGAAAAGUUAUCAGGCAUGCACCUGGUAGCUAGUCUUUAAACCAAUAGAUUGCAUCGGUUUAAAAGGCAAGACCGUCAAAUUGCGGGAAAGGGGUCAACAGCCGUUCAGUACCAAGUCUCAGGGGAAACUUUGAGAUGGCCUUGCAAAGGGUAUGGUAAUAAGCUGACGGACAUGGUCCUAACCACGCAGCCAAGUCCUAAGUCAACAGAUCUUCUGUUGAUAUGGAUGCAGUUCACAGACUAAAUGUCGGUCGGGGAAGAUGUAUUCUUCUCAUAAGAUAUAGUCGGACCUCUCCUUAAUGGGAGCUAGCGGAUGAAGUGAUGCAACACUGGAGCCGCUGGGAACUAAUUUGUAUGCGAAAGUAUAUUGAUUAGUUUUGGAGUACUCGUGGUCG
Procedure, shortened: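 Six replicate transformations of E. coli BL21(DE3) with a pET-22b(+) library were grown overnight at 37°C or 30°C. The library randomised all eight P1ex-region intron nucleotides, the intron lying in the knt kanamycin-resistance gene, and plates were LB agar with or without 25 μg/mL kanamycin plus 100 μg/mL carbenicillin, 50 μM IPTG and 0.2% rhamnose. Pooled colonies were amplicon-sequenced on an Illumina HiSeq 2500, and fitness is the DiMSum error-weighted combination of wild-type-normalised replicate fold changes, kanamycin versus none.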

Row | Sequence | self-splicing fitness (ln) (30 °C) | self-splicing fitness (ln) (37 °C)
1 | CACUAGCAAUAUUACGGGUU | -2.05 ± 0.076 | -1.28 ± 0.095
2 | UGAUAGCAAUAUUACGUACA | -0.211 ± 0.083 | -0.0617 ± 0.12
3 | AUUUAGCAAUAUUACGCCGA | -1.94 ± 0.28 | -1.09 ± 0.23
4 | UAUAAGCAAUAUUACGAGUC | -1.69 ± 0.32 | 
5 | AUUCAGCAAUAUUACGUCGC | -2.74 ± 0.099 | -1.86 ± 0.11
6 | GAGGAGCAAUAUUACGCUCC |  | -0.714 ± 0.48
7 | UAUGAGCAAUAUUACGACGA | -1.87 ± 0.36 | -1.62 ± 0.34
8 | UCACAGCAAUAUUACGCUCA | -1.61 ± 0.14 | -0.171 ± 0.12
9 | AACCAGCAAUAUUACGGGUA | -0.823 ± 0.045 | -0.376 ± 0.055
10 | AAUAAGCAAUAUUACGUGGG | -3 ± 0.13 | -2.75 ± 0.17
11 | CAGCAGCAAUAUUACGAGAA |  | -3.16 ± 0.37
12 | UUAAAGCAAUAUUACGCUAA | -0.626 ± 0.1 | -0.111 ± 0.12
13 | AGGGAGCAAUAUUACGGAAC | -3.01 ± 0.38 | -2.68 ± 0.41
14 | GUUUAGCAAUAUUACGUGAC |  | -0.596 ± 0.41
15 | AGACAGCAAUAUUACGUUAG | -3.69 ± 0.21 | -2.14 ± 0.15
16 | UUUGAGCAAUAUUACGAUGG | -2.08 ± 0.17 | -1.77 ± 0.2
17 | CCACAGCAAUAUUACGACAC | -3.68 ± 0.29 | -1.5 ± 0.18
18 | CGAAAGCAAUAUUACGGCAA | -1.82 ± 0.11 | -1.03 ± 0.1
19 | UAGUAGCAAUAUUACGGGAA | -2.79 ± 0.32 | -1.65 ± 0.29
20 | UCUGAGCAAUAUUACGUUCA | -2.84 ± 0.18 | -2.87 ± 0.28
21 | ACUCAGCAAUAUUACGACUC | -0.493 ± 0.054 | -0.0647 ± 0.068
22 | ACGUAGCAAUAUUACGGCCC | -0.341 ± 0.15 | 0.0459 ± 0.25
23 | UUGGAGCAAUAUUACGAGUC |  | -3.03 ± 0.43
24 | AAAAAGCAAUAUUACGCAAG | -1.78 ± 0.097 | -0.583 ± 0.1
25 | CAUGAGCAAUAUUACGUGCG | -1.75 ± 0.077 | -0.908 ± 0.083
26 | AGAGAGCAAUAUUACGCGCG |  | -1.3 ± 0.48

Row | Sequence | self-splicing fitness (ln) (30 °C) | self-splicing fitness (ln) (37 °C)
27 | UCAAAGCAAUAUUACGUUGG | -3.81 ± 0.18 | -3 ± 0.24
28 | ACAGAGCAAUAUUACGGUAC | -3.57 ± 0.2 | -3.02 ± 0.25
29 | CAGUAGCAAUAUUACGACCU | -0.458 ± 0.15 | -0.391 ± 0.2
30 | ACACAGCAAUAUUACGUUGU | -2.31 ± 0.09 | -2.6 ± 0.14
31 | GGUUAGCAAUAUUACGCCUG | -2.89 ± 0.38 | -2.7 ± 0.48
32 | GUCUAGCAAUAUUACGGCAC | -0.276 ± 0.14 | 0.385 ± 0.13
33 | GGACAGCAAUAUUACGCCGA | -0.609 ± 0.11 | -0.306 ± 0.12
34 | AAUUAGCAAUAUUACGGCAG | -0.691 ± 0.11 | -0.322 ± 0.1
35 | ACGUAGCAAUAUUACGCAAC | -2.74 ± 0.31 | -2.17 ± 0.35
36 | GAAUAGCAAUAUUACGGGCC | -1.6 ± 0.26 | -1.13 ± 0.37
37 | CACCAGCAAUAUUACGCCGG | -2.23 ± 0.15 | -0.937 ± 0.14
38 | GAUAAGCAAUAUUACGGCGC | 0.0448 ± 0.13 | -0.881 ± 0.13
39 | UUGUAGCAAUAUUACGGCGA | 0.174 ± 0.1 | 0.227 ± 0.14
40 | GCACAGCAAUAUUACGUAGA | -0.215 ± 0.049 | 0.62 ± 0.066
41 | AAAUAGCAAUAUUACGUGUU | -1.72 ± 0.083 | -1.75 ± 0.11
42 | GUAAAGCAAUAUUACGGGAU | -1.62 ± 0.082 | -0.341 ± 0.11
43 | UGCCAGCAAUAUUACGCCGC | -2.25 ± 0.23 | -1.49 ± 0.22
44 | AAGUAGCAAUAUUACGGUUG | -2.78 ± 0.1 | -2.16 ± 0.11
45 | AGCAAGCAAUAUUACGAGGC | -4.52 ± 0.34 | -2.51 ± 0.23
46 | CUGUAGCAAUAUUACGGCUU | -3.72 ± 0.25 | -2.86 ± 0.3
47 | CACUAGCAAUAUUACGACAU | -3.209 ± 0.019 | -1.97 ± 0.034
48 | CAAAAGCAAUAUUACGAUAG | -0.0755 ± 0.065 | 0.3 ± 0.083
49 | GAAUAGCAAUAUUACGGGAA | -2.97 ± 0.19 | -0.92 ± 0.1
50 | GGGAAGCAAUAUUACGGGGA | -1.49 ± 0.2 | -2.65 ± 0.29
51 | CGGCAGCAAUAUUACGCUCC | -4.03 ± 0.39 | -1.08 ± 0.25
52 | UAAGAGCAAUAUUACGCAAC |  | -2.19 ± 0.45

Row | Sequence | self-splicing fitness (ln) (30 °C) | self-splicing fitness (ln) (37 °C)
53 | GGUGAGCAAUAUUACGAUAA | -1.22 ± 0.47 | 
54 | UGUUAGCAAUAUUACGAUAG | -2.07 ± 0.26 | 0.173 ± 0.17
55 | UACAAGCAAUAUUACGAUGU | -3.72 ± 0.17 | -1.96 ± 0.14
56 | UUGCAGCAAUAUUACGCACA | -0.577 ± 0.11 | 0.406 ± 0.15
57 | AGGUAGCAAUAUUACGCUCU | -2.37 ± 0.024 | -1.45 ± 0.038
58 | GCUCAGCAAUAUUACGGUGU | -1.3 ± 0.062 | 0.0463 ± 0.076
59 | CACUAGCAAUAUUACGCUUU | -4.28 ± 0.42 | -1.57 ± 0.2
60 | GUUCAGCAAUAUUACGUCUG | -2.67 ± 0.085 | -1.54 ± 0.072
61 | CCGUAGCAAUAUUACGGCGC | -3.01 ± 0.33 | -1.48 ± 0.32
62 | GGGAAGCAAUAUUACGUAAG | -1.09 ± 0.086 | -1.14 ± 0.13
63 | AGCCAGCAAUAUUACGUCUC | -3.95 ± 0.37 | -2.78 ± 0.27
64 | GGGAAGCAAUAUUACGCAAU | -2.67 ± 0.17 | -1.42 ± 0.19
65 | ACGGAGCAAUAUUACGGUCA | -3.14 ± 0.3 | -1.35 ± 0.18
66 | CAAAAGCAAUAUUACGCACG | -1.5 ± 0.098 | -0.59 ± 0.12
67 | CAUUAGCAAUAUUACGGGAU | -3.2 ± 0.19 | -2.92 ± 0.23
68 | GAGCAGCAAUAUUACGGCAU | -0.308 ± 0.081 | -0.549 ± 0.094
69 | GAAAAGCAAUAUUACGCUUU | -3.39 ± 0.22 | -2.39 ± 0.26
70 | UACCAGCAAUAUUACGACCA | -0.314 ± 0.081 | 0.106 ± 0.1
71 | AAGGAGCAAUAUUACGUCCC | 0.0851 ± 0.15 | -1.06 ± 0.23
72 | ACUUAGCAAUAUUACGCACU | -0.553 ± 0.093 | 0.532 ± 0.12
73 | CGCCAGCAAUAUUACGCGCC | -1.82 ± 0.27 | -1.15 ± 0.27
74 | GCAUAGCAAUAUUACGAAUA | -2.07 ± 0.17 | -1.38 ± 0.19
75 | CAAAAGCAAUAUUACGGUUU | -2.93 ± 0.11 | -1.21 ± 0.1
76 | GCCAAGCAAUAUUACGCGGG | -3.54 ± 0.23 | -2.37 ± 0.18
77 | UUGUAGCAAUAUUACGCUCG | -0.29 ± 0.14 | -0.456 ± 0.25
78 | UCAGAGCAAUAUUACGCGUG | -2.31 ± 0.16 | -2.05 ± 0.15
